Residue numbers refer to the chain shown, from its start.
Columns and labels:
[1] = test system: SKOV3-Luc cells; experiment: SKOV3 xenograft in NSG mice; conditions: 1 × 10^6 SKOV3-Luc s.c., a week later 3 × 10^6 SAR-T i.v.
[2] = test system: L363 cells; experiment: JNG assay, co-culture with L363 cells; type: cell-based; conditions: co-culture with L363
Outline: (§1)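 Read-out is NFAT-driven GFP measured by flow cytometry after ~4–18 h co-culture of SAR-expressing JNG cells with target cells (E:T about 1:2). SARs were introduced by lentiviral spinfection and selected with puromycin or blasticidin when possible; scores (+/- to 5+ ≈ 5–50% GFP+) are relative to parental JNG cells.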

[3] = test system: Nalm6 cells; experiment: JNG assay, co-culture with Nalm6 cells; type: cell-based; conditions: co-culture with Nalm6
Outline: (§2)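 Read-out: % GFP-positive cells by flow cytometry after ~4 to 18 h coculture of SAR-transduced JNG cells with targets (E:T about 1:2). Scores reflect GFP induction above parental JNG controls: +/- ≈5%, + ≈10%, up to 5+ ≈50%.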

[4] = test system: LNCaP cells; experiment: JNG assay, co-culture with LNCaP cells; type: cell-based; conditions: co-culture with LNCaP
Outline: as §2

[5] = test system: RS;411; experiment: JNG assay, co-culture with RS;411 cells; type: cell-based; conditions: co-culture with RS411
Outline: as §1

[6] = test system: RAJI-CD19-KO cells; experiment: JNG assay, co-culture with RAJI-CD19-KO cells; type: cell-based; conditions: co-culture with Raji-CD19-KO
Outline: as §1

B1: 10518 (protein)
chain: MALPVTALLLPLALLLHAARPEVQLVESGGGLVQPGGSLRLSCAASGYTFSDYFMSWVRQAPGKGLEWVATISNGGTYTYYPDSVKGRFTISRDNSKNTLYLQMNSLRAEDTAVYYCARFDGYIFDYWGQGTLVTVSSGGGGSGGGGSGGGGSDIQMTQSPSSLSASVGDRVTITCRASQDISNYLNWYQQKPGKAPKLLIYYTSRLHSGVPSRFSGSGSGTDFTLTISSLQPEDFATYYCQQGNTLPYTFGQGTKVEIKRTREQKLISEEDLAKPTTTPAPRPPTPAPTIASQPLSLRPEACRPAAGGAVHTRGLDFACDIYIWAPLAGTCGVLLLSLVITLYCKRGRKKLLYIFKQPFMRPVQTTQEEDGCSCRFPEEEEGGCELRVKFSRSADAPAYQQGQNQLYNELNLGRREEYDVLDKRRGRDPEMGGKPRRKNPQEGLYNELQKDKMAEAYSEIGMKGERRRGKGHDGLYQGLSTATKDTYDALHMQALPPR
modifications: Synthetic Polynucloetide
- tumor inhibition / protection, SKOV3 xenograft [1]: weak protection

B2: 10656 (protein)
chain: B1 chain with Y48F, Y249W
modifications: Synthetic Polynucloetide
- tumor inhibition / protection, SKOV3 xenograft [1]: weak protection

B3: 10587 (protein)
chain: B1 chain with Y48F, N184S
modifications: Synthetic Polynucloetide
- tumor inhibition / protection, SKOV3 xenograft [1]: weak protection

B4: 22178 (protein)
chain: MALPVTALLLPLALLLHAARPEVQLVESGGGVVQPGRSLRLSCAASGFSFSGYGMHWVRQAPGKGLEWVAYISYDGSNKYYADSVKGRFTISRDNSKNTLYLQMNSLRAEDTAVYYCAKDPAWGLRLGESSSYDFDIWGQGTMVTVSSGTGGGGSGGGGSGGGGSEFDIQMTQSPSSLSASVGDRVTITCKASDHINNWLAWYQQKPGQAPKLLIYGATTLETGVPSRFSGSGSGTDYTLTISSLQPEDFATYYCQQSWNTPWTFGQGTKLEIKRLEDLKNVFPPEVAVFEPSKAEIAHTQKATLVCLATGFYPDHVELSWWVNGKEVHSGVCTDPQPLKEQPALNDSRYCLSSRLRVSATFWQNPRNHFRCQVQFYGLSENDEWTQDRAKPVTQIVSAEAWGRADCGITSASYHQGVLSATILYEILLGKATLYAVLVSALVLMAMVKRKDSRGRAKRSGSGATNFSLLKQAGDVEENPGPTSATMDWIWRILFLVGAATGAHSGPQVQLQESGGGLAQAGGSLRLSCAASGRTFSMGWFRQAPGKEREFVAAITYSGGSPYYASSVRGRFTISRDNAKNTVYLQMNSLKPEDTAVYYCAANPTYGSDWNAENWGQGTQVTVSSGSGGGGSGGGGSGGGGSFEQVQLQQPGAELVKPGASVKMSCKASGYAFSSYWINWMKQKPGQGLEWIGQIYPGDGDTNYNGKFKGRATLTADTSSSTAYMQLSSLTSEDSAVYFCARSITTVVGCAMDYWGQGTSVTVSSTRIQNPDPAVYQLRDSKSSDKSVCLFTDFDSQTNVSQSKDSDVYITDKCVLDMRSMDFKSNSAVAWSNKSDFACANAFNNSIIPEDTFFPSSDVPCDVKLVEKSFETDTNLNFQNLSVIGFRILLLKVAGFNLLMTLRLWSSRAKRSGSGVKQTLNFDLLKLAGDVESNPGPSRGHMTEYKPTVRLATRDDVPRAVRTLAAAFADYPATRHTVDPDRHIERVTELQELFLTRVGLDIGKVWVADDGAAVAVWTTPESVEAGAVFAEIGPRMAELSGSRLAAQQQMEGLLAPHRPKEPAWFLATVGVSPDHQGKGLGSAVVLPGVEAAERAGVPAFLETSAPRNLPFYERLGFTVTADVEVPEGPRTWCMTRKPGA
- NFAT-GFP ASSAY: L363 [2]: +/- (refer to approximately 5%, 10%, 20%, 30%, 40% and 50% GFP positive cells)
- NFAT-GFP ASSAY: Nalm6 [3]: 5+ (refer to approximately 5%, 10%, 20%, 30%, 40% and 50% GFP positive cells)
- NFAT-GFP ASSAY: LNCaP [4]: 5+ (refer to approximately 5%, 10%, 20%, 30%, 40% and 50% GFP positive cells)
- NFAT-GFP ASSAY: RS411 [5]: + (refer to approximately 5%, 10%, 20%, 30%, 40% and 50% GFP positive cells)
- NFAT-GFP ASSAY: Raji-CD19-KO [6]: 5+ (refer to approximately 5%, 10%, 20%, 30%, 40% and 50% GFP positive cells)

Reference: US20230212319A1, “NOVEL ANTIGEN BINDING DOMAINS AND SYNTHETIC ANTIGEN RECEPTORS INCORPORATING THE SAME” (University of Southern California, priority 2020, published 2023)
